Experimental findings from patent US20130133089A1 (MEDICAL RESEARCH INFRASTRUCTURE AND HEALTH SERVICES FUND OF …, published 2013) are described below.

Like-named read-outs stand apart in the source and are kept apart here.

The target in assay [1] is long form of human leptin receptor (hLEPR) on BAF/3 or H-49 (HEK-293) cells (human) (UniProt P48357). Kind of assay: cell-based or functional assay.
Assay [2] concerns the target Recombinant human leptin binding domain (hLBD) (human) (UniProt P48357). Kind of assay: competitive plate binding assay: immobilized hLBD, biotinylated mouse leptin as ligand, mutein as competitor.
Assay [3] addresses T1, Recombinant human leptin binding domain (hLBD) (human, UniProt P48357 428-635, biotinylated with Sulfo-NHS-LC-Biotin in the yeast display assays; not labelled when immobilized in the plate binding assay).
T1 construct: CRH2 sub-domain of the leptin receptor; Prepared in the applicants' laboratory; also called soluble human leptin receptor; CHR2
T1 sequence (looked up): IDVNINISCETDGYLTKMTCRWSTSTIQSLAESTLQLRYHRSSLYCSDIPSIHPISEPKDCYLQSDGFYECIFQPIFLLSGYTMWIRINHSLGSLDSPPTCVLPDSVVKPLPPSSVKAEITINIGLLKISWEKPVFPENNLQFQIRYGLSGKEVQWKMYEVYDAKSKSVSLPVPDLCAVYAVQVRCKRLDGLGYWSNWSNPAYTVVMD
Kind of assay: competitive plate binding assay on immobilized hLBD, representative experiment (FIG. 7D). The procedure:
(§1) Biotinylated mouse leptin served as the ligand in all competitive experiments and the respective mouse leptin or mouse or human leptin antagonist muteins as competitors. The hLBD was used as the receptor source. Polystyrene 96-well microtiter plates were coated overnight at 4° C. with 100 μl of 40 μM hLBD in PBS pH 7.4. Wells were then washed one time with PBST (PBS containing 0.05 Tween 20) and blocked with PBS containing 3% skim milk for two hours in room temperature. All further incubations were carried out at room temperature. Wells were washed one time with PBST and incubated with different concentrations of un-labeled leptins (50 μl/well) for 30 min and then 50 μl of 62.5 μM of biotinylated mouse leptin were added to each well for another two hours. Then the wells were washed three times with PBST and incubated with 1:30,000 streptavidin-HRP in PBS containing 1 Tween 20 for one hour. Subsequently the wells were washed three times with PBST and the reaction was quantified in 450 nm by microplate reader ELISA Plate Reader ELx808—Bio-Tek Instrument Inc. (Winooski, Vt., USA) using TMB according to manufacturer's instructions.

The target of assay [4] is T1, Recombinant human leptin binding domain …. Description: competitive plate binding assay: immobilized hLBD, biotinylated mouse leptin as ligand, mutein as competitor. The procedure:
as §1

Assay [5] concerns the target long form of human leptin receptor (hLEPR) on BAF/3 or H-49 (HEK-293) cells (human), P48357. Description: cell-based or functional assay.
Assay [6] has as its target T1, Recombinant human leptin binding domain …. Kind of assay: competitive plate binding assay: immobilized hLBD, biotinylated mouse leptin as ligand, mutein as competitor. The procedure: as §1
This is another data set of the same source.

long form of human leptin receptor (hLEPR) on BAF/3 or H-49 (HEK-293) cells (human), P48357, sequence (P48357 22-1165): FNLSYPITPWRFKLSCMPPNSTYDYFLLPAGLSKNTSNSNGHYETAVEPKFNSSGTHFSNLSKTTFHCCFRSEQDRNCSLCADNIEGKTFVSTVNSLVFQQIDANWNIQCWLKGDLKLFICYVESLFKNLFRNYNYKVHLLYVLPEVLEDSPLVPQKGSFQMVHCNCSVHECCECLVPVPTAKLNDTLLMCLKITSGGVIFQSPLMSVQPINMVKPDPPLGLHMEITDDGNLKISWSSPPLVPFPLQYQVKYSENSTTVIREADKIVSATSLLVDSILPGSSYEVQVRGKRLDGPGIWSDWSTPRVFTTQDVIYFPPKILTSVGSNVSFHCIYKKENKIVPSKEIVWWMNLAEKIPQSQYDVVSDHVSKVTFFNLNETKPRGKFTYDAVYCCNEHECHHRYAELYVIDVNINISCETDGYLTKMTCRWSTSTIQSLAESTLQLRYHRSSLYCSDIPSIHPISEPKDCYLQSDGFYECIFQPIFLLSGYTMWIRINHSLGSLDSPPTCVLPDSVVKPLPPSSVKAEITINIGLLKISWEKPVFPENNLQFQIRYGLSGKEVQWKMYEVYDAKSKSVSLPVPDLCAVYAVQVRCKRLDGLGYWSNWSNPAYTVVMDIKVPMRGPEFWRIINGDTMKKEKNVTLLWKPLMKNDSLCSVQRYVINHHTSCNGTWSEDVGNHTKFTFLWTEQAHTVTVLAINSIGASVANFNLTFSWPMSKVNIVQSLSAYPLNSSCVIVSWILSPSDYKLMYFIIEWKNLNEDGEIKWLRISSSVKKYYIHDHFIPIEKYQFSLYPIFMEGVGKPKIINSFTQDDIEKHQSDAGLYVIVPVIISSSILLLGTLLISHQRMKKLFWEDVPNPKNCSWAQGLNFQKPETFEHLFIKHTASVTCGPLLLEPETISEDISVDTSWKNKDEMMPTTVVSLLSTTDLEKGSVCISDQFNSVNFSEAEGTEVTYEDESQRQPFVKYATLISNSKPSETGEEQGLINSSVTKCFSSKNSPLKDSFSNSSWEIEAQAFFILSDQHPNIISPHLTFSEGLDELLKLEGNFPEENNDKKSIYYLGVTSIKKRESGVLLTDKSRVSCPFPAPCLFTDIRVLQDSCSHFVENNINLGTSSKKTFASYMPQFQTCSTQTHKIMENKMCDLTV
long form of human leptin receptor (hLEPR) on BAF/3 or H-49 (HEK-293) cells (human), sequence (P48357 22-1165): as above

For the molecule “recombinant mouse leptin mutein H7 (K11R, Q34R, T37A, F92C, S97Y, I136V), agonist (from UniProt P41160 22-167) (ligand)”, in assay [1], the BAF/3 bioassay: fold increase in bioactivity as compared to the WT mouse leptin turned out to be 0.5 fold and the Luciferase bioassay: fold increase in bioactivity as compared to the WT mouse leptin came to 0.3 fold. Also, the fold increase in affinity as compared to the WT mouse leptin in assay [2] came out at 0.83 fold.

B1: pegylated superactive mouse leptin antagonist (PEG-SMLA) (ligand)
chain: VPIQKVQDDTKTLIKTLVTRINLISHTQSVSAKQRVTGAAAIPGLHPILSLSKMDQTLAVYQQVLTSLPSQNVLQIANDLENLRDLLHLLAFSKSCSLPQTSGLQKPESLDGVLEASLYSTEVVALSRLQGSLQDILQQVDLSPGC
modifications: mPEG-propionyl-ALD 20 kDa, preferentially on the N-terminal amino group (85% monopegylated, ~9% double pegylated)
notes: also called pegylated SMLA; superANT
Consider B1, for which, in assay [3], the “fold reduction in affinity as compared to the non-pegylated SMLA” value is 6.2 fold.

B2: superactive mouse leptin antagonist (SMLA), D23L/L39A/D40A/F41A mouse leptin (ligand)
chain: VPIQKVQDDTKTLIKTLVTRINLISHTQSVSAKQRVTGAAAIPGLHPILSLSKMDQTLAVYQQVLTSLPSQNVLQIANDLENLRDLLHLLAFSKSCSLPQTSGLQKPESLDGVLEASLYSTEVVALSRLQGSLQDILQQVDLSPGC
notes: also called D23L MLA; super active MLA
Take B2: the “fold increase in affinity as compared to the WT mouse leptin antagonist” value in assay [4] stood at 64 fold.

B3: mouse leptin antagonist D23G/L39A/D40A/F41A (ligand)
chain: AVPIQKVQDDTKTLIKTIVTRINGISHTQSVSAKQRVTGAAAIPGLHPILSLSKMDQTLAVYQQVLTSLPSQNVLQIANDLENLRDLLHLLAFSKSCSLPQTSGLQKPESLDGVLEASLYSTEVVALSRLQGSLQDILQQLDVSPEC
notes: mature
On to B3, for which, in assay [5], the BAF/3 bioassay: fold increase in bioactivity as compared to the WT mouse leptin antagonist was determined as 2.5 fold. Further, the “fold increase in affinity as compared to the WT mouse leptin antagonist” value in assay [4] is 17.5 fold.

B4: recombinant mouse leptin mutein H22 (T12I), agonist (ligand)
chain: AVPIQKVQDDTKILIKTIVTRINDISHTQSVSAKQRVTGLDFIPGLHPILSLSKMDQTLAVYQQVLTSLPSQNVLQIANDLENLRDLLHLLAFSKSCSLPQTSGLQKPESLDGVLEASLYSTEVVALSRLQGSLQDILQQLDVSPEC
notes: mature
With B4, in assay [6], the “fold increase in affinity as compared to the WT mouse leptin” value amounted to 11.7 fold.

B5: recombinant mouse leptin mutein H30 (D23H), agonist (ligand)
chain: AVPIQKVQDDTKTLIKTIVTRINHISHTQSVSAKQRVTGLDFIPGLHPILSLSKMDQTLAVYQQVLTSLPSQNVLQIANDLENLRDLLHLLAFSKSCSLPQTSGLQKPESLDGVLEASLYSTEVVALSRLQGSLQDILQQLDVSPEC
notes: mature
As to B5, in assay [5], the BAF/3 bioassay: fold increase in bioactivity as compared to the WT mouse leptin worked out at 0.3 fold and the Luciferase bioassay: fold increase in bioactivity as compared to the WT mouse leptin turned out to be 0.6 fold. For the same molecule, the “fold increase in affinity as compared to the WT mouse leptin” value in assay [6] came to 35 fold.

B6: mouse leptin antagonist D23W/L39A/D40A/F41A (ligand)
chain: AVPIQKVQDDTKTLIKTIVTRINWISHTQSVSAKQRVTGAAAIPGLHPILSLSKMDQTLAVYQQVLTSLPSQNVLQIANDLENLRDLLHLLAFSKSCSLPQTSGLQKPESLDGVLEASLYSTEVVALSRLQGSLQDILQQLDVSPEC
notes: mature
The molecule B6 gave a BAF/3 bioassay: fold increase in bioactivity as compared to the WT mouse leptin antagonist in assay [5] of 4.2 fold. Besides, in assay [4], the “fold increase in affinity as compared to the WT mouse leptin antagonist” value was determined as 36 fold.

B7: recombinant mouse leptin mutein H12 (S97Y), agonist (ligand)
chain: AVPIQKVQDDTKTLIKTIVTRINDISHTQSVSAKQRVTGLDFIPGLHPILSLSKMDQTLAVYQQVLTSLPSQNVLQIANDLENLRDLLHLLAFSKSCYLPQTSGLQKPESLDGVLEASLYSTEVVALSRLQGSLQDILQQLDVSPEC
notes: mature
On to B7, for which the “fold increase in affinity as compared to the WT mouse leptin” value in assay [6] amounted to 1.5 fold.

B8: mouse leptin antagonist D23A/L39A/D40A/F41A (ligand)
chain: AVPIQKVQDDTKTLIKTIVTRINAISHTQSVSAKQRVTGAAAIPGLHPILSLSKMDQTLAVYQQVLTSLPSQNVLQIANDLENLRDLLHLLAFSKSCSLPQTSGLQKPESLDGVLEASLYSTEVVALSRLQGSLQDILQQLDVSPEC
notes: mature
B8: the BAF/3 bioassay: fold increase in bioactivity as compared to the WT mouse leptin antagonist in assay [5] was found to be 3.3 fold. Moreover, the “fold increase in affinity as compared to the WT mouse leptin antagonist” value in assay [4] is 21 fold.

B9: recombinant mouse leptin mutein H16 (D23G, G112S), agonist (ligand)
chain: AVPIQKVQDDTKTLIKTIVTRINGISHTQSVSAKQRVTGLDFIPGLHPILSLSKMDQTLAVYQQVLTSLPSQNVLQIANDLENLRDLLHLLAFSKSCSLPQTSGLQKPESLDSVLEASLYSTEVVALSRLQGSLQDILQQLDVSPEC
notes: mature
For the molecule B9, in assay [5], the BAF/3 bioassay: fold increase in bioactivity as compared to the WT mouse leptin was found to be 0.8 fold and the Luciferase bioassay: fold increase in bioactivity as compared to the WT mouse leptin is 0.9 fold. Moreover, the “fold increase in affinity as compared to the WT mouse leptin” value in assay [6] amounted to 20.3 fold.

B10: mouse leptin antagonist D23K/L39A/D40A/F41A (ligand)
chain: AVPIQKVQDDTKTLIKTIVTRINKISHTQSVSAKQRVTGAAAIPGLHPILSLSKMDQTLAVYQQVLTSLPSQNVLQIANDLENLRDLLHLLAFSKSCSLPQTSGLQKPESLDGVLEASLYSTEVVALSRLQGSLQDILQQLDVSPEC
notes: mature
In the case of B10, in assay [5], the BAF/3 bioassay: fold increase in bioactivity as compared to the WT mouse leptin antagonist worked out at 3.7 fold. Besides, the “fold increase in affinity as compared to the WT mouse leptin antagonist” value in assay [4] was found to be 19 fold.

B11: mouse leptin antagonist D23R/L39A/D40A/F41A (ligand)
chain: AVPIQKVQDDTKTLIKTIVTRINRISHTQSVSAKQRVTGAAAIPGLHPILSLSKMDQTLAVYQQVLTSLPSQNVLQIANDLENLRDLLHLLAFSKSCSLPQTSGLQKPESLDGVLEASLYSTEVVALSRLQGSLQDILQQLDVSPEC
notes: mature; also called D23R MLA
Molecule B11 came in with a BAF/3 bioassay: fold increase in bioactivity as compared to the WT mouse leptin antagonist in assay [5] of 8.6 fold. Besides, in assay [4], the “fold increase in affinity as compared to the WT mouse leptin antagonist” value worked out at 51 fold.

B12: recombinant mouse leptin mutein H19 (D23G, T37A, G44D), agonist (ligand)
chain: AVPIQKVQDDTKTLIKTIVTRINGISHTQSVSAKQRVAGLDFIPDLHPILSLSKMDQTLAVYQQVLTSLPSQNVLQIANDLENLRDLLHLLAFSKSCSLPQTSGLQKPESLDGVLEASLYSTEVVALSRLQGSLQDILQQLDVSPEC
notes: mature
Consider B12, for which, in assay [5], the BAF/3 bioassay: fold increase in bioactivity as compared to the WT mouse leptin was 0.9 fold and the Luciferase bioassay: fold increase in bioactivity as compared to the WT mouse leptin came out at 1.5 fold. The “fold increase in affinity as compared to the WT mouse leptin” value in assay [6] turned out to be 10.4 fold.

B13: recombinant mouse leptin mutein H15 (D23G, L68M, S97F, S132Y), agonist (ligand)
chain: AVPIQKVQDDTKTLIKTIVTRINGISHTQSVSAKQRVTGLDFIPGLHPILSLSKMDQTLAVYQQVLTSMPSQNVLQIANDLENLRDLLHLLAFSKSCFLPQTSGLQKPESLDGVLEASLYSTEVVALSRLQGYLQDILQQLDVSPEC
notes: mature
Take B13: in assay [6], the “fold increase in affinity as compared to the WT mouse leptin” value turned out to be 9.7 fold.

B14: mouse leptin antagonist D23H/L39A/D40A/F41A (ligand)
chain: AVPIQKVQDDTKTLIKTIVTRINHISHTQSVSAKQRVTGAAAIPGLHPILSLSKMDQTLAVYQQVLTSLPSQNVLQIANDLENLRDLLHLLAFSKSCSLPQTSGLQKPESLDGVLEASLYSTEVVALSRLQGSLQDILQQLDVSPEC
notes: mature; also called H30 (antagonist); D23H MLA
On to B14, for which the BAF/3 bioassay: fold increase in bioactivity as compared to the WT mouse leptin antagonist in assay [5] came out at 5 fold. In assay [5], the Luciferase bioassay: fold increase in bioactivity as compared to the WT mouse leptin antagonist worked out at 5.7 fold. Also, the “fold increase in affinity as compared to the WT mouse leptin antagonist” value in assay [6] and in assay [4] was 34 fold in each case.

B15: mouse leptin antagonist D23F/L39A/D40A/F41A (ligand)
chain: AVPIQKVQDDTKTLIKTIVTRINFISHTQSVSAKQRVTGAAAIPGLHPILSLSKMDQTLAVYQQVLTSLPSQNVLQIANDLENLRDLLHLLAFSKSCSLPQTSGLQKPESLDGVLEASLYSTEVVALSRLQGSLQDILQQLDVSPEC
notes: mature
Molecule B15 displayed a BAF/3 bioassay: fold increase in bioactivity as compared to the WT mouse leptin antagonist in assay [5] of 3.7 fold. Also, the “fold increase in affinity as compared to the WT mouse leptin antagonist” value in assay [4] was found to be 28 fold.
